“Also recorded” adds a separate entry of the source.
B1: E3: humanized, affinity matured anti-NGF antagonist antibody; variable regions SEQ ID NO:1 and 2; human IgG2a (A330P331 to S330S331), kappa (antibody, V domains shown)
VH: QVQLQESGPGLVKPSETLSLTCTVSGFSLIGYDLNWIRQPPGKGLEWIGIIWGDGTTDYNSAVKSRVTISKDTSKNQFSLKLSSVTAADTAVYYCARGGYWYATSYYFDYWGQGTLVTVS
VL: DIQMTQSPSSLSASVGDRVTITCRASQSISNNLNWYQQKPGKAPKLLIYYTSRFHSGVPSRFSGSGSGTDFTFTISSLQPEDIATYYCQQEHTLPYTFGQGTKLEIKRT
modifications: human IgG2a constant (A330S/P331S) and kappa constant missing

Legend:
[1] = CFA arthritis rats, body weight (Example 8); format: in vivo, rat; conditions: for body weight: arthritic rats
Experimental: Five groups of 10 animals (5-weeks old male Lewis rats-LEWIS Lew/Ico, from Charles River Laboratories—Belgium) each were included in this study: Group 1: non arthritic rats/saline (vehicle), i.v. bolus, n=10; Group 2: arthritic rats/saline (vehicle), i.v. bolus, n=10; Group 3: arthritic rats/Indomethacin 3 mg/kg, p.o daily over 10 days, n=10; Group 4: arthritic rats/E3, 1 mg/kg, i.v. bolus, n=10; Group 5: arthritic rats/911, 10 mg/kg, i.v. bolus, n=10. The doses were expressed in terms of free active substance (mg/kg). E3 and 911 were extemporaneously prepared in saline from the stock solution to the desired concentration. E3 1 mg/kg: 3.41 mL of the stock solution (0.88 mg/ml) q.s.p. 15 mL of saline. 911 10 mg/kg: 12 mL of the stock solution (2.5 mg/ml) q.s.p. 15 mL of saline. All diluted solutions (before i.v. injection) were sterilized using a sterile filter unit of 0.20.μm. pH and osmolarity values of diluted solutions were measured before each i.v. injection. Before the first i.v., osmolarity (mosm/L) for saline, E3, and 911 were 278, 269, and 308 respectively; pH for saline, E3, and 911 were 5.93, 6.76, 6.71 respectively. Before the second i.v., osmolarity (mosm/L) for saline, E3, and 911 were 280, 270, and 309 respectively; pH for saline, E3, and 911 were 5.86, 6.72, and 6.59 respectively.
E3 or 911 or saline were administered by i.v. bolus injection on Day 14 and Day 19 after arthritis induction in a coded and random order with a volume of 5 mL/kg. The non arthritic group was given by i.v. bolus injection of saline on Day 14 and Day 19 with a volume of 5 mL/kg. Indomethacin was extemporaneously prepared in 1% methylcellulose. Indomethacin was administered by oral route (p.o.) once daily over 10 days from Day 14 to Day 23 after arthritis induction in a coded and random order with a volume of 10 mL/kg.
The animals were weighed once daily from Day 0 to Day 24 (except during the week-end days before the treatment: D 1, D 2, D 8, D 9, D 10). All measurements were performed between 9:00 and 12:00 am except at D 14 (7:30-9:00 am) and D 24 (7:30-8:00 am).
All results were reported as Mean ±S.E.M. of 10 rats in each group at each time point. Paw volume was expressed in ml calculated from the mean value of the right and left paw volume. Arthritis index was calculated from the sum of the score obtained for each of the 4 paws. The nociceptive response was evaluated by the intensity of the level of vocalization recorded for each animal (mean of 4 values: 2 times/paw) in mV. The percentage inhibition of the nociceptive response was calculated from the mean value of the vehicle-treated arthritic group [(mean value of vehicle-treated arthritic group−mean value of treated arthritic group/mean value of vehicle-treated arthritic group)*100]. Body weight was expressed in grams. Hindpaws (left and right) weight was expressed in grams. Cytokine levels (IL-6, IL-1β, TNF-α and TGF-β1) of each hind paw was expressed in pg/ml. Circulating levels of TGF-β1 was expressed in pg/ml. Radiological index for each parameter (demineralization, erosions, periostal reaction, soft tissue damage, space joint, osteogenesis deformity) and total radiological index (total score) were calculated from the sum of the scores obtained for each parameter. The inter-group significances of the deviations between the values of vehicle-treated group (arthritic rats) and vehicle-treated group (non arthritic rats) were assessed by the Student t test or Mann-Whitney Rank Sum Test when equal variance or normality test failed. The inter-group significances of the deviations between the values of vehicle-treated group (arthritic rats) and E3- and 911- and Indomethacin-treated groups were assessed by the 1-way analysis of variance ANOVA followed by the non-paired Dunnett t test. A probability of P<0.05 was considered as significant. All statistical analysis was performed by the Sigmastat™ software.

BDNF = target: T1, BDNF (Homo sapiens, UniProt P23560); assay: Mouse E17 nodose neuron survival assay, BDNF; format: cell-based; conditions: BDNF 400 pM; antibody up to 200 nM; 48 hours
T1 sequence (P23560 129-247): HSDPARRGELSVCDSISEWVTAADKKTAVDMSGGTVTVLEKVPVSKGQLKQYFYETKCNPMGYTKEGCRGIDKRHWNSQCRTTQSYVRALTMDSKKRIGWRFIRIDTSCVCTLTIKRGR
Experimental: (§1) The ability of antibody E3 to specifically block NGF activity was also evaluated by measurement of the capacity of the antibody to inhibit survival of mouse nodose E17 neurons in the presence of saturating concentrations of BDNF or NT4/5. Survival of nodose neurons is supported by BDNF or NT4/5; therefore, survival of these neurons is a sensitive assay to evaluate the BDNF or NT4/5-blocking ability of the anti-NGF antagonist antibody.
(§2) The survival assay was conducted as follows: time mated pregnant Swiss Webster female mice were euthanised by CO2 inhalation. The uterine horns were removed and the embryos (at embryonic day 17 or 18) were extracted and decapitated. The trigeminal and nodose ganglia were dissected and cleaned. The ganglia were then trypsinised, mechanically dissociated and plated at a density of 100-300 cells per well in defined, serum-free medium in 4-well plates (Greiner) coated with poly-L-ornithine and laminin.
(§3) E17 nodose neurons were grown either in the absence of added neurotrophic factors (negative control), or with saturating concentrations of BDNF (400 pM) (positive control) or NT4/5 (400 pM) or NGF unrelated growth factor […]. High concentrations of neurotrophins were used, as the goal of this experiment was to test specificity of the antibodies. […]

LIF = LIF (Homo sapiens, UniProt P15018); assay: Mouse E17 nodose neuron survival assay, LIF; format: cell-based; conditions: LIF 2.5 nM; antibody up to 200 nM; 48 hours
Experimental: as §1, §2, §3

[2] = E3 1 mg/kg or 911 10 mg/kg i.v. D14+D19, indomethacin 3 mg/kg/day p.o., D24
[3] = before treatment (dosing starts D14), D3
[4] = before treatment (dosing starts D14), D4
[5] = before treatment (dosing starts D14), D5
[6] = before treatment (dosing starts D14), D6
[7] = before treatment (dosing starts D14), D7
[8] = before treatment (dosing starts D14), D11
[9] = before treatment (dosing starts D14), D12
[10] = before treatment (dosing starts D14), D13
[11] = group later given E3 1 mg/kg or 911 10 mg/kg i.v. D14+D19 or indomethacin 3 mg/kg/day p.o., D0
[12] = D14 (selection day, first dosing)
[13] = E3 1 mg/kg or 911 10 mg/kg i.v. D14+D19, indomethacin 3 mg/kg/day p.o., D15
[14] = E3 1 mg/kg or 911 10 mg/kg i.v. D14+D19, indomethacin 3 mg/kg/day p.o., D16
[15] = E3 1 mg/kg or 911 10 mg/kg i.v. D14+D19, indomethacin 3 mg/kg/day p.o., D17
[16] = E3 1 mg/kg or 911 10 mg/kg i.v. D14+D19, indomethacin 3 mg/kg/day p.o., D18
[17] = E3 1 mg/kg or 911 10 mg/kg i.v. D14+D19, indomethacin 3 mg/kg/day p.o., D19
[18] = E3 1 mg/kg or 911 10 mg/kg i.v. D14+D19, indomethacin 3 mg/kg/day p.o., D20
[19] = E3 1 mg/kg or 911 10 mg/kg i.v. D14+D19, indomethacin 3 mg/kg/day p.o., D21
[20] = E3 1 mg/kg or 911 10 mg/kg i.v. D14+D19, indomethacin 3 mg/kg/day p.o., D22
[21] = E3 1 mg/kg or 911 10 mg/kg i.v. D14+D19, indomethacin 3 mg/kg/day p.o., D23

Sequence of LIF (P15018 23-202, species assumed): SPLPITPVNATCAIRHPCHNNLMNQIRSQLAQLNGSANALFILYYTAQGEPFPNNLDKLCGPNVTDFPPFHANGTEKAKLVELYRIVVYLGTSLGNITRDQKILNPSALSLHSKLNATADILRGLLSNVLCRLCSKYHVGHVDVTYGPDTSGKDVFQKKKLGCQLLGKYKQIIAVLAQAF

Molecule | maximum body weight increase compared to vehicle-treated arthritic group [1, 2] | body weight [1, 3] [grams] | body weight [1, 4] [grams] | body weight [1, 5] [grams] | body weight [1, 6] [grams] | body weight [1, 7] [grams] | body weight [1, 8] [grams] | body weight [1, 9] [grams] | body weight [1, 10] [grams] | body weight [1, 11] [grams] | body weight [1, 12] [grams] | body weight [1, 13] [grams] | body weight [1, 14] [grams] | body weight [1, 15] [grams] | body weight [1, 16] [grams] | body weight [1, 17] [grams] | body weight [1, 18] [grams] | body weight [1, 19] [grams] | body weight [1, 20] [grams] | body weight [1, 21] [grams] | also measured
COc1ccc2c(c1)c(CC(=O)O)c(C)n2C(=O)c1ccc(Cl)cc1 [Indomethacin, reference compound] | about 43 g | 217 ± 4 | 225 ± 4 | 235 ± 4 | 239 ± 4 | 246 ± 4 | 242 ± 7 | 235 ± 7 | 227 ± 6 | 202 ± 3 | 224 ± 5 | 230 ± 4 | 230 ± 5 | 231 ± 4 | 234 ± 4 | 236 ± 4 | 241 ± 4 | 246 ± 4 | 248 ± 5 | 253 ± 5 | body weight [1, 2]: 261±5 grams
B1 | about 46 g | 222 ± 3 | 230 ± 3 | 241 ± 3 | 243 ± 3 | 249 ± 3 | 242 ± 6 | 237 ± 6 | 230 ± 5 | 206 ± 4 | 225 ± 5 | 223 ± 5 | 224 ± 5 | 227 ± 4 | 232 ± 4 | 235 ± 4 | 238 ± 4 | 245 ± 4 | 250 ± 5 | 257 ± 5 | survival of E17 nodose neurons promoted by BDNF (BDNF): had no effect; also recorded: did not inhibit; body weight [1, 2]: 264±5 grams; survival of E17 nodose neurons promoted by LIF (LIF): had no effect; also recorded: did not inhibit

From patent publication US20080182978A1, “ANTI-NGF ANTIBODIES AND METHODS USING SAME” (RINAT NEUROSCIENCE CORP, priority 2002, published 2008)
